Biological target: M.EcoGII (methyltransferase EcoGII) (Escherichia coli)
Experiment: SEC; 50-100 ug protein on Superdex 200 Increase 10/300 GL, 0.75 ml/min, 20 mM HEPES (pH 7.0 in the methods, pH 7.4 in the legend), 250 mM NaCl; molecular weight estimated from a calibration curve of LMW markers

Q: With “M.EcoGII (methyltransferase EcoGII) (enzyme)” as the substance, how does the stoichiometry N read?
A: The stoichiometry N was 2.

From paper PMC11551740
